Laboratory results published in the supplement of paper PMC7125110.
± gives the standard error. Fewer inactive variants are shown than the library holds.

B1: glmS ribozyme (parent)
chain: AUAAAAGCGCCAGAACUACAGAAAUGUAGUUGACGAGGAGGAGGUUUAUCGAAUUUUCGGCGGAUGCCUCCAAA

Variants of: B1
Assay: self-cleavage kobs at 2500 uM GlcN6P; higher = faster cleavage; RNA array
Conditions: with glucosamine-6-phosphate
How it was run: (§1)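 Glucosamine-6-phosphate in HEPES/KCl/Mg(OAc)2 buffer, at 40 μM to 10 mM, was flowed over barcoded ribozyme variants transcribed in situ by E. coli RNA polymerase on sequenced MiSeq chips. Tracking was through a hybridised Cy3 probe at 37 °C. kobs, kcat and KM came from exponential decay fits and weighted Michaelis–Menten fits of normalised per-tile medians.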

AUAAAAGCGCCAGAACUACAGAAAUGUAGUUGACGAGGAGGAGGUUUUUCGAAUUUUCGCAGGAUGCCUCCAAA [A48U G60C C61A] and AUAAAAGCGCCAGAACUACAGAAAUGUAGUUGACGAGGAGGAGGUUUAUCGCAUUUUAGGCGGAUGCCUUCAAA [A52C C58A C70U] cannot be ordered by “self-cleavage kobs at 2500 uM GlcN6P” value: < 1e-05 s⁻¹ for the first, < 1e-05 s⁻¹ for the second.

Going from AUAAAAGCGCCAGAACUACAGAAAUGUAGUUGACGAGGAGGAGGUUUAUCUAAUUUUCGGCGGAUGCUUCUAAA [G51U C68U C71U] to AUAAAAGCGCCAGAACUACAGAAAUGUAGUUGACGAGGAGGAGGUUGAUCGAAUUUUAGGCGGAUGCAUCCAAA [U47G C58A C68A], the “self-cleavage kobs at 2500 uM GlcN6P” value rises from < 1e-05 s⁻¹ to 0.000116 ± 2.9e-05 s⁻¹.

Going from AUAAAAGCGCCAGAACUACAGAAAUGUAGUUGACGAGGAGGAGGUUUAUCGAGUGUUCGGCGGAUUCCUCCAAA [A53G U55G G66U] to AUAAAAGCGCCAGAACUACAGAAAUGUAGUUGACGAGGAGGAGGUCUAUUGAAUUUUCGGUGGAUGCCUCCAAA [U46C C50U C61U], the “self-cleavage kobs at 2500 uM GlcN6P” value falls from 0.00112 ± 0.00027 s⁻¹ to < 1e-05 s⁻¹.

Compared with AUAAAAGCGCCAGAACUACAGAAAUGUAGUUGACGAGGAGGAGGUUUUUCGAAUUUUCGGCGGAUGCCACCAAA [A48U U69A], AUAAAAGCGCCAGAACUACAGAAAUGUAGUUGACGAGGAGGAGGUGAAUCGAAUUUUCGGCGGAUGCCUCAAAA [U46G U47A C71A] is 41-fold higher in “self-cleavage kobs at 2500 uM GlcN6P” value: 2.8e-05 ± 1.3e-05 s⁻¹ for the first, 0.00116 ± 0.00028 s⁻¹ for the second.

Compared with AUAAAAGCGCCAGAACUACAGAAAUGUAGUUGACGAGGAGGAGGGUUAACGAAUCUUCGGCGGAUGCCUCCAAA [U45G U49A U55C], AUAAAAGCGCCAGAACUACAGAAAUGUAGUUGACGAGGAGGAGGUUUCUCGAAUUUUCGGCGGAUGGCUCCAAA [A48C C67G] is higher in “self-cleavage kobs at 2500 uM GlcN6P” value: < 1e-05 s⁻¹ for the first, 2.91e-05 ± 1e-05 s⁻¹ for the second.

First: AUAAAAGCGCCAGAACUACAGAAAUGUAGUUGACGAGGAGGAGGUUUAUGGAAUUUUCGGCGGAUGCGUUCAAA [C50G C68G C70U]
Second: AUAAAAGCGCCAGAACUACAGAAAUGUAGUUGACGAGGAGGAGGUUUAUCGAGUUCUCGUCAGAUGCCUCCAAA [A53G U56C G60U G62A]
The “self-cleavage kobs at 2500 uM GlcN6P” value of the first is higher: 7.27e-05 ± 1.1e-05 s⁻¹ for the first, < 1e-05 s⁻¹ for the second.

First: AUAAAAGCGCCAGAACUACAGAAAUGUAGUUGACGAGGAGGAGGUCUAUCGAAUUUACGGCGGAUGCCUCUAAA [U46C U57A C71U]
Second: AUAAAAGCGCCAGAACUACAGAAAUGUAGUUGACGAGGAGGAGGUUUACCGAAUUGUCGGCGGAUCCCUCCAAA [U49C U56G G66C]
The “self-cleavage kobs at 2500 uM GlcN6P” value of the first is higher: 4.35e-05 ± 1.6e-05 s⁻¹ for the first, < 1e-05 s⁻¹ for the second.

First: AUAAAAGCGCCAGAACUACAGAAAUGUAGUUGACGAGGAGGAGGUAUUUCGAAUUUUCGGCGGAUGCCUCCAAA [U46A A48U]
Second: AUAAAAGCGCCAGAACUACAGAAAUGUAGUUGACGAGGAGGAGGUUUAUCGUAUUUUCGGGGCAUACCUCCAAA [A52U C61G G63C G66A]
The “self-cleavage kobs at 2500 uM GlcN6P” value of the first is higher: 6.88e-05 ± 2.5e-05 s⁻¹ for the first, < 1e-05 s⁻¹ for the second.

AUAAAAGCGCCAGAACUACAGAAAUGUAGUUGACGAGGAGGAGGUUUAUUCAUUUUUCGGCGGAUGCCUCCAAA [C50U G51C A53U] and AUAAAAGCGCCAGAACUACAGAAAUGUAGUUGACGAGGAGGAGGUAUAUCGAAUUUUAGGUGGAUGCCUCCAAA [U46A C58A C61U] cannot be ordered by “self-cleavage kobs at 2500 uM GlcN6P” value: < 1e-05 s⁻¹ for the first, < 1e-05 s⁻¹ for the second.

Compared with AUAAAAGCGCCAGAACUACAGAAAUGUAGUUGACGAGGAGGAGGUUGAUCGAAGUUCCGGCGGAUGCCUCCAAA [U47G U54G U57C], AUAAAAGCGCCAGAACUACAGAAAUGUAGUUGACGAGGAGGAGGUUUAUCGAAUGUUCGGCGGACGCCUCCAAA [U55G U65C] is 3.6-fold higher in “self-cleavage kobs at 2500 uM GlcN6P” value: 0.00011 ± 2.6e-05 s⁻¹ for the first, 0.000396 ± 8.6e-05 s⁻¹ for the second.

First: AUAAAAGCGCCAGAACUACAGAAAUGUAGUUGACGAGGAGGAGGUUUAUCGAGUUUACGGCGGAUGCAUCCAAA [A53G U57A C68A]
Second: AUAAAAGCGCCAGAACUACAGAAAUGUAGUUGACGAGGAGGAGGUAUAUCGGAUUUUCGGCUGAUGCCUUCAAA [U46A A52G G62U C70U]
The “self-cleavage kobs at 2500 uM GlcN6P” value of the first is higher: 4.93e-05 ± 2.2e-05 s⁻¹ for the first, < 1e-05 s⁻¹ for the second.

Compared with AUAAAAGCGCCAGAACUACAGAAAUGUAGUUGACGAGGAGGAGGUUUAUGGAAUUUUGGGCCGAUGCCUCCAAA [C50G C58G G62C], AUAAAAGCGCCAGAACUACAGAAAUGUAGUUGACGAGGAGGAGGUCUAUCGAAUUUUCGGCGGAUACCUUCAAA [U46C G66A C70U] is 2.8-fold higher in “self-cleavage kobs at 2500 uM GlcN6P” value: 0.000553 ± 0.00021 s⁻¹ for the first, 0.00157 ± 0.00039 s⁻¹ for the second.

Compared with AUAAAAGCGCCAGAACUACAGAAAUGUAGUUGACGAGGAGGAGGUUAAUCGAAUUUUCGGCCGAUGCGUCGAAA [U47A G62C C68G C71G], AUAAAAGCGCCAGAACUACAGAAAUGUAGUUGACGAGGAGGAGGUUUAUCGAUGAUUCGGCGGAUGCCUCUAAA [A53U U54G U55A C71U] is 29-fold higher in “self-cleavage kobs at 2500 uM GlcN6P” value: 0.000178 ± 4.9e-05 s⁻¹ for the first, 0.00523 ± 0.0019 s⁻¹ for the second.

AUAAAAGCGCCAGAACUACAGAAAUGUAGUUGACGAGGAGGAGGUUUCUCGAAUUUUCGGCGAAUGCCUCAAAA [A48C G63A C71A] and AUAAAAGCGCCAGAACUACAGAAAUGUAGUUGACGAGGAGGAGGUAUAACGAAUUUUCGGCGCAUGGCUCCAAA [U46A U49A G63C C67G] cannot be ordered by “self-cleavage kobs at 2500 uM GlcN6P” value: < 1e-05 s⁻¹ for the first, < 1e-05 s⁻¹ for the second.

First: AUAAAAGCGCCAGAACUACAGAAAUGUAGUUGACGAGGAGGAGGUUUAUCGAUUUGUCGGCGGAGGCCUCCAAA [A53U U56G U65G]
Second: AUAAAAGCGCCAGAACUACAGAAAUGUAGUUGACGAGGAGGAGGUUAAUCGAAUUUCCGGCGGAUGCCUCCAAA [U47A U57C]
The “self-cleavage kobs at 2500 uM GlcN6P” value of the first is 8.8-fold higher: 0.000913 ± 0.00018 s⁻¹ for the first, 0.000104 ± 2.6e-05 s⁻¹ for the second.

Compared with AUAAAAGCGCCAGAACUACAGAAAUGUAGUUGACGAGGAGGAGGUUUAUCGAGUUUUUGGCGGAUGCCUCCAAA [A53G C58U], AUAAAAGCGCCAGAACUACAGAAAUGUAGUUGACGAGGAGGAGGUUUCACGAAUCUUCGGCGGAUGCCUCCAAA [A48C U49A U55C] is lower in “self-cleavage kobs at 2500 uM GlcN6P” value: 1.96e-05 ± 7.8e-06 s⁻¹ for the first, < 1e-05 s⁻¹ for the second.

Variants of: B1
Assay: self-cleavage kobs at 10000 uM GlcN6P; higher = faster cleavage; RNA array
Conditions: with glucosamine-6-phosphate
How it was run: as §1

Compared with AUAAAAGCGCCAGAACUACAGAAAUGUAGUUGACGAGGAGGAGGUUUAUCGAGUGUUCGGCGGAUUCCUCCAAA [A53G U55G G66U], AUAAAAGCGCCAGAACUACAGAAAUGUAGUUGACGAGGAGGAGGUUUCUCGAAUUUUCGGCGGAUGGCUCCAAA [A48C C67G] is 72-fold lower in “self-cleavage kobs at 10000 uM GlcN6P” value: 0.00144 ± 0.00029 s⁻¹ for the first, 2e-05 ± 7.5e-06 s⁻¹ for the second.

First: AUAAAAGCGCCAGAACUACAGAAAUGUAGUUGACGAGGAGGAGGUUUAUCGAAUGUUCGGCGGACGCCUCCAAA [U55G U65C]
Second: AUAAAAGCGCCAGAACUACAGAAAUGUAGUUGACGAGGAGGAGGUUAAUCGAAUUUCCGGCGGAUGCCUCCAAA [U47A U57C]
The “self-cleavage kobs at 10000 uM GlcN6P” value of the first is 3.9-fold higher: 0.000628 ± 0.00013 s⁻¹ for the first, 0.000159 ± 2.5e-05 s⁻¹ for the second.

With AUAAAAGCGCCAGAACUACAGAAAUGUAGUUGACGAGGAGGAGGUUUAUCGAGUUUUUGGCGGAUGCCUCCAAA [A53G C58U] the “self-cleavage kobs at 10000 uM GlcN6P” value was 0.000105 ± 9.8e-06 s⁻¹.
